Measured values reported in patent US20240141039A1 (AGENUS, published 2024).

Legend:
[1] = target: T1, wild type full-length human CD96 isoform 2 expressed on CHO cells (human, UniProt P40200-2 22-569); assay: flow cytometry on CHO cells expressing human CD96 isoform 2, PE anti-human IgG Fc detection
T1 construct: whole, on cells; also called human CD96-CHO (isoform 2); human CD96 (iso2) CHO cells
T1 sequence (looked up): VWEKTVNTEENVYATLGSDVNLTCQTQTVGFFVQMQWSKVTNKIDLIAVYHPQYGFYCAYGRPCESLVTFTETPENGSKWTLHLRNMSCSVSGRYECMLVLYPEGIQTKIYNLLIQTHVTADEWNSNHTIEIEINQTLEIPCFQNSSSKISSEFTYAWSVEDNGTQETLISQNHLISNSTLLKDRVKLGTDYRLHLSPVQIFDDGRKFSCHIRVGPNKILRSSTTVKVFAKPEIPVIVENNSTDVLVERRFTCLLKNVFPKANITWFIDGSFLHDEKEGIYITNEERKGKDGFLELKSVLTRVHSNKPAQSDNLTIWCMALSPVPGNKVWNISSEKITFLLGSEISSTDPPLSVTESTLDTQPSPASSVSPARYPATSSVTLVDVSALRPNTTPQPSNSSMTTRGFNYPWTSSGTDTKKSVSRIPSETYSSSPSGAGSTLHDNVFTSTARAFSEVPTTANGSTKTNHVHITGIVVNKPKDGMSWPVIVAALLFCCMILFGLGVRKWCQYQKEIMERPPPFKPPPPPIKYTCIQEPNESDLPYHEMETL
Experimental: (§1) For the antibody binding assay, a frozen aliquot of human CD96-CHO cells (isoform 1 or isoform 2) was thawed at 37° C. and then transferred to a tube containing DPBS supplemented with 0.5% Bovine Serum Albumin and 0.05% Sodium Azide (FACS Buffer). Cells were centrifuged at 300 g for five minutes. The supernatant was discarded, and cells resuspended in FACS buffer were seeded in a 96-well U-bottom tissue culture plate at a density of 2×10⁵ cells per well in 50 μL. In a separate microplate, a 2× concentrated intermediate stock of each antibody was prepared. Antibodies were serially diluted 1-to-3 in FACS buffer. A total of 11 working dilutions ranging from 60 μg/mL to 0.001 μg/mL were prepared. Fifty microlitres of each dilution were then transferred to the microplate containing human CD96-CHO cells. The cells were then incubated for 45 minutes at 4° C. […] After a 30-minute incubation on ice, the cells were washed twice with cold FACS Buffer, and the cells were analyzed by flow cytometry (BD LSR Fortessa Flow Cytometer). The data were analyzed using the FlowJo software by sequentially gating the FSC-A vs. SSC-A, and SSC-H vs. SSC-A. Mean fluorescence intensity (MFI) values for PE were calculated, and the data were plotted by GraphPad Prism software.

[2] = target: T2, full-length human FcγRIIIa variant V/V expressed on CHO cells (human, UniProt P08637 17-254); assay: flow cytometry on CHO cells expressing human FcγRIIIa variant V/V, PE anti-human IgG Fc detection
T2 construct: whole, on cells; also called human FcγRIIIa-CHO (variant V/V); human FcγRIIIa (V/V) CHO cells
T2 sequence (P08637 other isoform, or with tags, fused parts or gaps mutant limits assumed): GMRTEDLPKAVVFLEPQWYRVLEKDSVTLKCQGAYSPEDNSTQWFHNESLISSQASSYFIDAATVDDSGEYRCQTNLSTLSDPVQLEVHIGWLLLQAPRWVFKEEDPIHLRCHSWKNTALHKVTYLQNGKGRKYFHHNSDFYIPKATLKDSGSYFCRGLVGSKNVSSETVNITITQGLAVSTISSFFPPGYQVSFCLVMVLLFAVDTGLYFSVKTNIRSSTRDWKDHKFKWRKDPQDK
Experimental: The ability of anti-TIGIT×CD96 multispecific molecules to bind to variant V/V or variant F/F of human FcγRIIIa expressed on the surface of CHO cells was assessed. Briefly, CHO cells were transfected with a vector encoding full-length human FcγRIIIa (human FcγRIIIa-CHO) variant V/V or F/F, and clones stably expressing FcγRIIIa (variant V/V or variant F/F) were selected.
as §1, with “human FcγRIIIa-CHO (variant V/V or variant F/F)” for “human CD96-CHO”, “cells” for “cells (isoform 1 or isoform 2)”, “each multispecific molecule” for “each antibody”, “prepared.” for “prepared. Antibodies were serially diluted 1-to-3 in FACS buffer. A total of 11 working dilutions ranging from 60 μg/mL to 0.001 μg/mL were prepared. Fifty microlitres of each dilution were then transferred to the microplate containing human CD96-CHO cells. The cells were then incubated for 45 minutes at 4° C.”

[3] = target: T1, wild type full-length human CD96 …; assay: flow cytometry, blocking of CD155-Fc-PE binding to human CD96 (isoform 2) CHO cells, geomean of 3 experiments
Experimental: A 4× concentrated intermediate stock of each multispecific molecule was prepared in a microplate. Antibodies were serially diluted 1-to-3 in FACS buffer. […] Lastly, 25 μL of wild type human CD96-CHO cells (isoform 2), prepared as described above, were added to each well. After a 30-minute incubation on ice, the cells were washed twice with cold FACS Buffer, and the cells were analyzed by flow cytometry (BD LSR Fortessa Flow Cytometer). The data were analyzed using the FlowJo software by sequentially gating on the FSC-A vs. SSC-A and SSC-H vs. SSC-A. Mean fluorescence intensity (MFI) values for PE were calculated, and the data were plotted by GraphPad Prism software and analyzed as described above.

B1: anti-TIGIT×CD96 multispecific molecule BA123 (bispecific antibody, human IgG1, kappa, lambda)
heavy 1: QVQLVQSGAEVKKPGASVKVSCKASGYTFTSYGISWVRQAPGQGLEWMGWISAYNANTNYAQKLQGRVTMTTDTSTSTAYMELRSLRSDDTAVYYCARSAGVLGGMDVWGRGTLVTVSSASTKGPSVFPLAPSSKSTSGGTAALGCLVKDYFPEPVTVSWNSGALTSGVHTFPAVLQSSGLYSLSSVVTVPSSSLGTQTYICNVNHKPSNTKVDKRVEPKSCDKTHTCPPCPAPELLGGPDVFLFPPKPKDTLMISRTPEVTCVVVDVSHEDPEVKFNWYVDGVEVHNAKTKPREEQYNSTYRVVSVLTVLHQDWLNGKEYKCKVSNKALPAPIEKTISKAKGQPREPQVYTLPPSREEMTKNQVSLSCAVKGFYPSDIAVEWESNGQPENNYKTTPPVLDSDGSFFLVSKLTVDKSRWQQGNVFSCSVMHEALHNHYTQKSLSLSPG
light 1: not shown
heavy 2: EVQLVQSGAEVKKPGSSVKVSCKASGYTFASYGISWVRQAPGQGLEWMGGITPFFNRVDVAEKFQGRVTITADKSTSTAYIELSSLRSEDTAVYYCARDLRRGGVGDAFDIWGRGTLVTVSSASTKGPSVFPLAPSSKSTSGGTAALGCLVKDYFPEPVTVSWNSGALTSGVHTFPAVLQSSGLYSLSSVVTVPSSSLGTQTYICNVNHKPSNTKVDKRVEPKSCDKTHTCPPCPAPELLGGPDVFLFPPKPKDTLMISRTPEVTCVVVDVSHEDPEVKFNWYVDGVEVHNAKTKPREEQYNSTYRVVSVLTVLHQDWLNGKEYKCKVSNKALPLPEEKTISKAKGQPREPQVYTLPPSREEMTKNQVSLWCLVKGFYPSDIAVEWESNGQPENNYKTTPPVLDSDGSFFLYSKLTVDKSRWQQGNVFSCSVMHEALHNHYTQKSLSLSPG
light 2: QSALTQPRSVSGSPGQSVTISCTGTSPDVGSHAYRSWYQQHPGKAPKLMIYEVSYRPSGVSNRFSGSKSGNTASLTISGLQAEDEADYYCSSYPPSSATVFGAGTKLTVLGQPKAAPSVTLFPPSSEELQANKATLVCLISDFYPGAVTVAWKADSSPVKAGVETTTPSKQSNNKYAASSYLSLTPEQWKSHRSYSCQVTHEGSTVEKTVAPTEC
notes: copies: 1 + 1 + 1 + 1
In the case of B1, the “EC50 (read off the curve)” value [1] is reported as ~0.2 µg/mL, the “EC50 (read off the curve)” value [2] is reported as ~0.3 µg/mL and the IC50 [3] is reported as 5.63 µg/mL.

B2: anti-TIGIT×CD96 multispecific molecule BA127 (bispecific antibody, human IgG1, kappa, lambda)
heavy 1: QVQLVQSGAEVKKPGASVKVSCKASGYTFTTYALHWVRQAPGQRLEWMGWINTGSGDTKYSQKFQGRVTITRDTSASTAYMELSSLRSEDTAVYYCARSLGVYYGMDVWGQGTLVTVSSASTKGPSVFPLAPSSKSTSGGTAALGCLVKDYFPEPVTVSWNSGALTSGVHTFPAVLQSSGLYSLSSVVTVPSSSLGTQTYICNVNHKPSNTKVDKRVEPKSCDKTHTCPPCPAPELLGGPDVFLFPPKPKDTLMISRTPEVTCVVVDVSHEDPEVKFNWYVDGVEVHNAKTKPREEQYNSTYRVVSVLTVLHQDWLNGKEYKCKVSNKALPAPIEKTISKAKGQPREPQVYTLPPSREEMTKNQVSLSCAVKGFYPSDIAVEWESNGQPENNYKTTPPVLDSDGSFFLVSKLTVDKSRWQQGNVFSCSVMHEALHNHYTQKSLSLSPG
light 1: not shown
heavy 2: B1 heavy 2
light 2: B1 light 2
notes: Anti-CD96 arm = BA139, anti-TIGIT arm = BA150; copies: 1 + 1 + 1 + 1
For B2, the “EC50 (read off the curve)” value [1] was ~0.03 µg/mL, the “EC50 (read off the curve)” value [2] was ~0.2 µg/mL and the IC50 [3] was 1.99 µg/mL.
